# Source: US12571800B2, “Means and methods for treating angiogenesis-related diseases” (Heidelberg Biotech GmbH, priority 2011, dated 2026)
# Columns and labels:
# solid tumors = settings: cited from earlier work
# [1] = test system: human umbilical vein endothelial cells (HUVECs); settings: in vitro; cited from earlier work
# rat aortic rings = settings: in vitro; cited from earlier work
# [2] = test system: chicken chorioallantoic membrane; settings: CAM assay; cited from earlier work
# fibronectin [3] = molecular target: T1, fibronectin (Homo sapiens, UniProt P02751); assay: Elisa, binding to fibronectin; settings: proteins coated at 10 μg/ml; fibronectin as ligand at the same concentration
# Experimental: Coating of proteins were done in PBS at concentration of 10 μg/ml. Fibronectin served as a ligand at the same concentration. All buffers contained 2% BSA, 0.1% Tween-20.
# Three protein constructs human Fc (control), dimeric human (h)Fc-Endostatin and hFc-VEGF were employed. […] Artificial endostatin dimer was generated by introducing a single mutation in amino acid position 7 of endostatin (changing glutamine to cysteine) in the recombinant Fc-endostatin. Upon digestion of this mutant protein by enterokinase, endostatin dimer is produced, linked by a disulfide bond (Kuo et al., loc. cit.).
# fibronectin [4] = molecular target: T1, fibronectin; assay: Biacore (SPR) equilibrium binding constants to fibronectin; settings: fibronectin 0.78 nM-100 nM over immobilized protein; values only in FIG. 1C
# Experimental: Fibronectin samples were prepared by serial dilution into 0.01 M Hepes, pH 7.4, 0.15 M NaCl, 0.05% Surfactant containing 1 mg/ml BSA in the range 0.78 nM-100 nM and flowed over control and derivatized surfaces for three minutes at a flow-rate of 60 μl/min. Dissociation phases were monitored for 5 minutes. Zero concentration blank buffer cycles were included as negative control samples. Sensor surfaces were regenerated using a 1 minute injection of 1 M ethanolamine, pH 8.5 following each interaction analysis cycle. Non-specific binding effects to sensor surface CM4 were not observed. Calculated ka, kd and KD are shown. Different curves correspond to different concentrations of fibronectin.
# 1.3 Surface Plasmon Resonance (SPR) binding assays. This analysis provides for a unique method for measuring equilibrium constants between two binding partners. It is able to evaluate the kinetics of an interaction by recording the rates of complex formation (ka) and dissociation (kd) followed by employing a software which determines the values of these two parameters. Equilibrium constant (KD) is obtained by calculating the ration of kd/ka Human VEGF (R&D), endostatin, endostatin dimer and human NC-1 (hNC-1) were diluted to 50 μg/ml in 10 mM Sodium Acetate, pH 5.5 and immobilized onto series S sensor chip(s) CM4 via a standard N-ethyl-N′-(dimethyl-aminopropyl)carbodiimide/N-hydroxysuccinimide (EDC/NHS) amine coupling procedures. Control surfaces were prepared similarly without protein derivatization and utilized as a reference surface for compound binding experiments.
# Binding measurements were performed using a Biacore™ (GE Healthcare, Uppsala, Sweden) instrument which employs surface plasmon resonance to detect and monitor molecular interactions.
# Data analysis was carried out using Biacore T100 evaluation software v1.1.1. Data were prepared by subtraction of reference surface data and blank buffer sample data, a procedure commonly referred to as ‘double referencing’ and fitted to a 1:1 langmuir binding model.
# In order to measure equilibrium binding constants for the above proteins, a Biacore system was employed. […] Fc-endostatin imposes a dimeric structure on the two molecules of endostatin at the C-terminus of Fc dimer.
# HUVECs [5] = assay: Immunofluorescence, endothelial cell surface binding; assay type: cell-based, human
# Experimental: HUVECs were incubated with Fc-endostatin and detected with Alexa 488 IgG or human NC-1 (hNC-1) trimer and detected by anti-His tag monoclonal antibody.
# 1.5 Immunocytochemistry. HUVECs were plated and grown on cover slips. […] The slips were incubated in the blocking buffer (2% BSA PBS) for 30 min. For hFc-endostatin or hFc groups, the slides were incubated with Alexa 488 antihuman IgG for imaging. For hNC-1 or IgG groups, the slides were incubated with mouse anti-His-tag monoclonal antibody, then probed by Alexa 488 anti-mouse IgG. Anti-fibronectin antibody (R&D) was used for secondary staining for all slides and probed by Alexa 594 anti-goat IgG and imaged by confocal-microscopy. DAPI counterstaining of nuclei is shown in blue.
# 2.3 Binding of oligomeric hFc-endostatin and hNC-1 to HUVECs. Immunoflourescence technique was employed to detect endothelial cell surface binding of oligomeric endostatin and NC-1.
# HUVECs [6] = assay: Endothelial cell migration assay (transwell, VEGF-induced); assay type: cell-based, human
# Experimental: HUVECs were plated into 24-well inserts of transwell plate in duplication. The lower chamber was filled with serum free medium containing 100 ng/ml […] VEGF (rhVEGF) plus different concentrations of hNC-1. After incubation for 16 h at 37° C., the cells were fixed and stained. […] Endostatin monomer, dimer and NC-1 were used for comparison (c).
# 1.7 Endothelial cell migration assay. HUVECs were washed by serum free EBM medium twice, re-suspended at 5×10^4 cells/well in 0.6 ml of medium, were plated into 24-well inserts (Coring, 8 μm pore size) in duplicates. The lower chamber was filled with 0.6 ml of serum free EBM medium containing 100 ng/ml […] (rh)VEGF (R&D) After incubation for 16 h at 37° C., the cells were fixed by methanol and stained with eosin and hemotoxlin. Cells on the upper side of the transwell membrane were removed by cotton swab. Cells migrating to the lower side of membrane were counted.
# 2.4 hNC-1 inhibits endothelial cells migration. Endothelial cell migration is an important step in new blood vessel formation and tumor angiogenesis. To evaluate the effect of hNC-1 on endothelial cell migration, rhVEGF has been used to induce HUVECs migration in a transwell assay. The migration of cells has been monitored and quantified Cells migrating across the membrane were stained with blue-purple stain (FIG. 3B(a)) and counted.
# [7] = test system: human melanoma cancer cells (A2058); assay: A2058 human melanoma tumors in nude mice; assay type: in vivo
# Experimental: 4-6 tumor-bearing nude mice in each group were subcutaneously (s.c.) treated with hNC-1 (100 μg/mouse once a day), clinical-grade endostatin (100 and 500 μg/mouse once a day) or PBS. Treatment was stopped prior to the development of necrosis. Sites of injection were away from tumors. Tumor sizes and the ratio of treated/control (T/C) is shown.
# 1.4 Animal and tumor models. All animal procedures were carried out in compliance with Children's Hospital Boston guidelines Protocols were approved by the Institutional Animal Care and Use Committee. Eight-week-old male (24-27 g) nude/nude mice (Massachusetts General Hospital, Boston, MA) were used. Mice were acclimated, caged in groups of five in a barrier care facility, and fed animal chow and water ad libitum. Animals were euthanized by CO2 inhalation. Human melanoma cell line A2058 was used for animal studies. A suspension of 2×10^6 tumor cells in 0.1 ml of PBS was injected subcutaneously (s.c.) into the dorsa of mice at the proximal midline. Mice were weighed and tumors were monitored twice a week in two diameters with digital calipers. Tumor volumes were determined using a^2×b×0.52 (where a is the shortest and b is the longest diameter). Tumors were allowed to grow to ˜100 mm^3 and mice were randomized. Treatment was by bolus s.c. injections. After experiments were completed, tumors and organs were excised and fixed in either 4% paraformaldehyde or were snap frozen. Four to six mice were treated with each group.
# 2.6 hNC-1 suppresses tumor growth in vivo. In order to compare anti-tumor activities of NC-1 and endostatin, nude mice bearing human melanoma cell line A2058 were employed. Two doses of clinical grade endostatin differing by 5-fold in concentration of protein (low and high doses) were used. […] It cannot be ruled out the possibility that injected NC-1 becomes degraded upon entering the circulation.
# [8] = Stability in serum or cell culture media; assay type: in vitro ADME; settings: longer periods of time, even at 4° C.
# From the text: The invention also relates to a method for producing the protein oligomer or peptide oligomer or fusion protein of the invention, comprising (a) culturing a host cell comprising a nucleic acid encoding the protein oligomer or peptide oligomer or fusion protein of the invention, preferably under serum-free conditions, (b) obtaining from the host cell of step (a) the protein oligomer or peptide oligomer or fusion protein, and, optionally, (c) storing the protein oligomer or peptide oligomer or fusion protein, preferably under serum-free conditions. […] Therefore, it is advantageous to produce and keep the protein oligomer or peptide oligomer of the invention under serum-free conditions.
# The earliest condition media employed for endostatin isolation was continuously kept at 4° C. for a long period of time (at least a month) prior to final purification step. Presence of fetal calf serum in the media can cause degradation of NC-1. Confirmation of this hypothesis was established by another group in the inventor's laboratory a year later, employing the same mouse tumor cell line (Wen et al., loc. cit.). […] Consequently, the earlier observation of an endostatin size protein being the only product following HPLC purification, strongly supports the inventor's hypothesis that NC-1 was completely digested to an endostatin size molecule after prolonged incubation at 4° C. […]
# T1 sequence (P02751 32-2477): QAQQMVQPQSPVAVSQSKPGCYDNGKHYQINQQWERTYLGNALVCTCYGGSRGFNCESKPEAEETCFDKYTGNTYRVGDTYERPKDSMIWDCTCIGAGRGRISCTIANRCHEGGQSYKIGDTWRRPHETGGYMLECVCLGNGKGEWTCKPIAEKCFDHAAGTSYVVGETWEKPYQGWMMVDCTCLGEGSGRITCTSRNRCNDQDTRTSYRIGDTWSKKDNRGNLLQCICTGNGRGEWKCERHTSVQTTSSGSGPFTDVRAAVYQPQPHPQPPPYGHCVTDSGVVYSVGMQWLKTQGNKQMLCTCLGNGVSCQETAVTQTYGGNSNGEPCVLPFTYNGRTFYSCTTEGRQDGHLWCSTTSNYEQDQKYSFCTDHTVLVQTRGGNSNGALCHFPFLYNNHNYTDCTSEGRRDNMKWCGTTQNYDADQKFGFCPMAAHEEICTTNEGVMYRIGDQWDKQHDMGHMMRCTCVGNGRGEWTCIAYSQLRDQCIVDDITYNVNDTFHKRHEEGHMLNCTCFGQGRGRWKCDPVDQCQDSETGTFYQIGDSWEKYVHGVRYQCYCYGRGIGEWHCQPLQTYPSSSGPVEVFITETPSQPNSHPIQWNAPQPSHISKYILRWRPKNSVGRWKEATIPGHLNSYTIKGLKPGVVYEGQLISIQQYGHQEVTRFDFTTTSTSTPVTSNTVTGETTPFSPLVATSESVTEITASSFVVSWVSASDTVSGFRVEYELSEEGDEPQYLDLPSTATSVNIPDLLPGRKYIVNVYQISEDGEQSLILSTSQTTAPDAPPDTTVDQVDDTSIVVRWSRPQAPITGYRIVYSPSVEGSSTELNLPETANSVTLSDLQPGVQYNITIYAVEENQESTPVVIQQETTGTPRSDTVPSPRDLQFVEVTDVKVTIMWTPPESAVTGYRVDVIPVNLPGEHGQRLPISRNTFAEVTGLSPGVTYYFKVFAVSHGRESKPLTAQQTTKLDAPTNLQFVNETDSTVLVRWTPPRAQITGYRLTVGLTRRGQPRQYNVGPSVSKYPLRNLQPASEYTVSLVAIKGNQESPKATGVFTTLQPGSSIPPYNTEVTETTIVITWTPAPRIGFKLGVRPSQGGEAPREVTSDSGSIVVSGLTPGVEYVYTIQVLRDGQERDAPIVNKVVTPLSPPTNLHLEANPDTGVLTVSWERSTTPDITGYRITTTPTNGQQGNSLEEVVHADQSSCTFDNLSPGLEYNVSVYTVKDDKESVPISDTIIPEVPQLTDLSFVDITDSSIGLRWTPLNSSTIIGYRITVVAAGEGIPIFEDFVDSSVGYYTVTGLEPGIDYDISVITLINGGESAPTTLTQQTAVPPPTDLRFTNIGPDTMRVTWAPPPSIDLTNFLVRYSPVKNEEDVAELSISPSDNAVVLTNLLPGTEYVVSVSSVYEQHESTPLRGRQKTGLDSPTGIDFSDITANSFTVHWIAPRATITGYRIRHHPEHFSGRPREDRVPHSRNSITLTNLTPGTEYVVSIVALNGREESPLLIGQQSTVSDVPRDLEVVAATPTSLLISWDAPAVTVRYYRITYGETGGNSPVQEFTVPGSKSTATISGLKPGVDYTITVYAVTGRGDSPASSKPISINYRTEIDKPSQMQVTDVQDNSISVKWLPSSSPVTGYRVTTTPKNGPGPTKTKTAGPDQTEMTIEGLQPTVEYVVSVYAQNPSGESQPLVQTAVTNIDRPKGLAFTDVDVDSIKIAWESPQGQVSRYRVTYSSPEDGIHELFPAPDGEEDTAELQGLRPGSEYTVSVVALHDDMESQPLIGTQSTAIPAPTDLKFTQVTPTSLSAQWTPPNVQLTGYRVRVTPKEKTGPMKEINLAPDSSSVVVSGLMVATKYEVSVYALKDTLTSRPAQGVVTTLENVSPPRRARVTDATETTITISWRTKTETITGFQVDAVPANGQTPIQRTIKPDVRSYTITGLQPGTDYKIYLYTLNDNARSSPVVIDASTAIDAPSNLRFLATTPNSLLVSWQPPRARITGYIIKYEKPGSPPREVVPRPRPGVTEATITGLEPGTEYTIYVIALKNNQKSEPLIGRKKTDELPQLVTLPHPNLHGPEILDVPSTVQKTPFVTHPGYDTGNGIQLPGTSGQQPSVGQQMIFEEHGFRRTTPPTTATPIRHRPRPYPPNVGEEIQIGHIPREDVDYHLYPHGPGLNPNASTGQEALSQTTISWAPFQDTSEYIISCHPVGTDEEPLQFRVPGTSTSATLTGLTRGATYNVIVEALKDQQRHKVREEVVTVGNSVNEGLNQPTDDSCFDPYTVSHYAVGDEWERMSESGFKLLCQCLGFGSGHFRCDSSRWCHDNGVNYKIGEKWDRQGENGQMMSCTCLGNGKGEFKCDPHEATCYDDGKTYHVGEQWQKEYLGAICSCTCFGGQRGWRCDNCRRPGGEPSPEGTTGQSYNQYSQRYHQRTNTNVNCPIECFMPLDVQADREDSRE
molecule,measurement,setting,value
"Endostar: recombinant human endostatin from Escherichia coli with an additional nine-amino acid sequence forming a his-tag (protein, UniProt P39060 1572-1754, looked up, Endostatin nine-residue his-tag) Endostatin: HSHRDFQPVLHLVALNSPLSGGMRGIRGADFQCFQQARAVGLAGTFRAFLSSRLQDLYSIVRRADRAAVPIVNLKDELLFPSWEALFSGSEGPLKPGARIFSFDGKDVLRHPTWPQKSVWHGSDPNGRRLTESYCETWRTEAPSATGQASSLLGGRLLGQSAASCHHAYIVLCIENSFMTASK",Median time to tumor progression,"solid tumors; 7.5 mg/m^2/day i.v. more than 7 days, with chemotherapy",3.0 months
same,toxicity combined with chemotherapy,"solid tumors; human, in vivo",tolerable
same,treatment related death,"solid tumors; human, in vivo",No treatment related death
same,patients remaining stable,solid tumors; of 42 patients,twenty-one
same,patients with progressive disease,solid tumors; of 42 patients,nineteen
same,Median overall survival,solid tumors; with chemotherapy,30.0 months
same,complete response,solid tumors; with chemotherapy,No complete response
same,one year survival rate,solid tumors; with chemotherapy,81.0%
same,patients with partial response,solid tumors; with chemotherapy,Two of 42
same,"VEGF-stimulated proliferation, migration, and tube formation of HUVECs",[1],suppressed
same,microvessel sprouting from rat aortic rings,rat aortic rings,blocked microvessel sprouting
same,formation of new capillaries from pre-existing vessels,[2],inhibit the formation of new capillaries
"hNC-1: naturally occurring trimeric NC-1 domain of human collagen 18: association domain, hinge region and endostatin domain (protein, left off: small tags and cut ends, naturally occurring trimeric NC-1 domain of human collagen 18: association domain, hinge region and endostatin domain) SGVRLWATRQAMLGQVHEVPEGWLIFVAEQEELYVRVQNGFRKVQLEARTPLPRGTDNEVAALQPPVVQLHDSNPYPRREHPHPTARPWRADDILASPPRLPEPQPYPGAPHHSSYVHLRPARPTSPPAHSHRDFQPVLHLVALNSPLSGGMRGIRGADFQCFQQARAVGLAGTFRAFLSSRLQDLYSIVRRADRAAVPIVNLKDELLFPSWEALFSGSEGPLKPGARIFSFDGKDVLRHPTWPQKSVWHGSDPNGRRLTESYCETWRTEAPSATGQASSLLGGRLLGQSAASCHHAYIVLCIENSFMTASK",binding to fibronectin (Elisa),fibronectin [3],bound fibronectin
same,equilibrium binding constant to fibronectin (Biacore),fibronectin [4],High affinity constants
same,binding to HUVECs,HUVECs [5]; cells cultured only for 24 hours,poor binding
same,binding to HUVECs,HUVECs [5]; incubation time prolonged to 72 hours,significant binding
same,"anti-migratory potency among endostatin monomer, dimer and NC-1",HUVECs [6],most potent anti-migratory agent
same,VEGF-induced endothelial cell migration,"HUVECs [6]; 100 ng/ml rhVEGF, 16 h",inhibited VEGF-induced endothelial cell migration
same,endothelial cell migration,HUVECs [6]; 100 and 200 ng/ml of hNC-1,less migration
same,dose effect on endothelial cell migration,HUVECs [6]; different concentrations of hNC-1,U-shaped curve
same,inhibition of tumor growth,"[7]; end of experiment, s.c. once a day, hNC-1 100 μg/mouse, endostatin 100 and 500 μg/mouse",67%
same,anti-tumor activity compared with endostatin,[7]; low dose of NC-1 vs 5-fold higher dose of endostatin,anti-tumor activity similar to high dose of endostatin
same,stability in serum or cell culture media,[8],susceptible to degradation
